One block for each binder: values may come before it.
Legend:
human CLDN8 = molecular target: T1, human CLDN8 (human, UniProt P56748 1-225); experiment: flow cytometry on transiently transfected 293 cells, 100 ug/ml
T1 construct: whole, on cells
T1 sequence (looked up): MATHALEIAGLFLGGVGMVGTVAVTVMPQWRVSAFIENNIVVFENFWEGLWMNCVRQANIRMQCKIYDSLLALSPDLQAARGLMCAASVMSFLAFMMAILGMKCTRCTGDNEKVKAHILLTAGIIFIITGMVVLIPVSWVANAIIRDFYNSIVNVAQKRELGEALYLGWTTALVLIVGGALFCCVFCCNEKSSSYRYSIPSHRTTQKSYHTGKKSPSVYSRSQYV
Description: (§1) 293 cells were transiently transfected to express CLDN3, CLDN4, CLDN8, or CLDN17. Cells were plated and each test article was added to each cell line at a 100 μg/ml dose. After 1 hour incubation at 4° C., cells were washed and a secondary AF647 antibody was added. Cells were incubated at 4° C. for another hour, followed by additional washing and then analysis by flow cytometry.
as §1, with “with” for “to express”, “cytometry. […] This highlights the potential of CLDN6 binding domains having specificity for binding not only CLDN6 but also other claudin family members.” for “cytometry.”

human CLDN17 = molecular target: T2, human CLDN17 (human, UniProt P56750 1-224); experiment: as above
T2 construct: whole, on cells
T2 sequence (looked up): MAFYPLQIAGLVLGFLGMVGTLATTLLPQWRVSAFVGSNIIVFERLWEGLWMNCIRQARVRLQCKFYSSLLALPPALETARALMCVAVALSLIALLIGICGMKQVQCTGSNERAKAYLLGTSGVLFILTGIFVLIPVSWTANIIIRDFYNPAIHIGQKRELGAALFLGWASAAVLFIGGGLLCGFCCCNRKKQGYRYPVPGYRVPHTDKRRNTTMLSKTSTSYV
Description: as §1
as §1, with “with” for “to express”, “cytometry. […] This highlights the potential of CLDN6 binding domains having specificity for binding not only CLDN6 but also other claudin family members.” for “cytometry.”

human CLDN6 [1] = molecular target: T3, human CLDN6 (human, UniProt P56747 1-220); experiment: flow cytometry on PA-1 cells engineered to a range of CLDN6 densities
T3 construct: also called Claudin 6
T3 sequence: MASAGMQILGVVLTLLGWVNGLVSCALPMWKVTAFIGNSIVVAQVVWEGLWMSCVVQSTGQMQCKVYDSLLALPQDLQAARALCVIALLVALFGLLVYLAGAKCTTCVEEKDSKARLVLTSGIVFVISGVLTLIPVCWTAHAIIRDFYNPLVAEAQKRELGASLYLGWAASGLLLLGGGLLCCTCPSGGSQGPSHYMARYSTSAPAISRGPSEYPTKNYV
Description: PA-1 cells were engineered to stably express a range of CLDN6 antigen densities. […] Cells were washed, stained with a secondary antibody, and washed again prior to being analyzed using flow cytometry.
Cell lines were then washed, stained with secondary antibody, and washed again before measuring binding by flow cytometry.

human CLDN9 = molecular target: T4, human CLDN9 (human, UniProt O95484 1-217); experiment: flow cytometry on HEK293E cells expressing CLDN9
T4 construct: also called CLND9
T4 sequence: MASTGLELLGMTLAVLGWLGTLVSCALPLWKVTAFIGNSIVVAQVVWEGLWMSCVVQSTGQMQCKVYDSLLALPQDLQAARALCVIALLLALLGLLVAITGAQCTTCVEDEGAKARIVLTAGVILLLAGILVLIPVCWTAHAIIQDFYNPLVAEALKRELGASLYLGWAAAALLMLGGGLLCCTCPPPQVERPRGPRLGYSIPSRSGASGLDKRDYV
Description: (§2) The following experiments used to screen CLDN6 binding domains were generally performed as follows. HEK293T or HEK293E cells were respectively stably or transiently transfected to express CLDN6, CLND9, or other targets of interest. 48 hours post transfection, cells were harvested and incubated with dilutions of the indicated test articles for 1 hour at 4° C. […] Binding was then assessed via flow cytometry.

human CLDN6 [2] = molecular target: T3, human CLDN6; experiment: flow cytometry on HEK293E cells expressing CLDN6 or CLDN9; EC50 on CLDN9 cells divided by EC50 on CLDN6 cells
Description: as §2

- binding result (human CLDN8): binds
- binding result (human CLDN17): binds
B1: XENP37217, CLDN6 x CD3 bispecific with comparator CLDN6 binding domain Comp_CHO02 in the 2+1 Fab2-scFv-Fc format (bispecific antibody)
heavy 1: EVQVEQSGLELVKPGASVKISCKTSGYTFTEYTMHWVKQSHGKSLEWIGGINPNNGNTRYNQKFKDKATLTVDKSSRTAYMELHTLTSEDSAVYYCARCGDYDLFFFFAYWGQGTLVTVSAASTKGPSVFPLAPSSKSTSGGTAALGCLVKDYFPEPVTVSWNSGALTSGVHTFPAVLQSSGLYSLSSVVTVPSSSLGTQTYICNVNHKPSNTKVDKKVEPKSCGGGGSGGGGSQAVVTQEPSLTVSPGGTVTLTCGSSTGAVTTSNYANWVQQKPGKSPRGLIGGTNKRAPGVPARFSGSLLGGKAALTISGAQPEDEADYYCALWYSNHWVFGGGTKLTVLGKPGSGKPGSGKPGSGKPGSEVQLVESGGGLVQPGGSLRLSCAASGFTFSTYAMNWVRQAPGKGLEWVGRIRSKANNYATYYADSVKGRFTISRDDSKNTLYLQMNSLRAEDTAVYYCVRHGNFGDSYVSWFAYWGQGTLVTVSSGGGGSGGGGSKTHTCPPCPAPPVAGPSVFLFPPKPKDTLMISRTPEVTCVVVDVKHEDPEVKFNWYVDGVEVHNAKTKPREEQYNSTYRVVSVLTVLHQDWLNGKEYKCKVSNKALPAPIEKTISKAKGQPREPQVYTLPPSREQMTKNQVKLTCLVKGFYPSDIAVEWESNGQPENNYKTTPPVLDSDGSFFLYSKLTVDKSRWQQGNVFSCSVMHEALHNHYTQKSLSLSPGK
heavy 2: EVQVEQSGLELVKPGASVKISCKTSGYTFTEYTMHWVKQSHGKSLEWIGGINPNNGNTRYNQKFKDKATLTVDKSSRTAYMELHTLTSEDSAVYYCARCGDYDLFFFFAYWGQGTLVTVSAASTKGPSVFPLAPSSKSTSGGTAALGCLVKDYFPEPVTVSWNSGALTSGVHTFPAVLQSSGLYSLSSVVTVPSSSLGTQTYICNVNHKPSDTKVDKKVEPKSCDKTHTCPPCPAPPVAGPSVFLFPPKPKDTLMISRTPEVTCVVVDVKHEDPEVKFNWYVDGVEVHNAKTKPREEEYNSTYRVVSVLTVLHQDWLNGKEYKCKVSNKALPAPIEKTISKAKGQPREPQVYTLPPSREEMTKNQVSLTCDVSGFYPSDIAVEWESDGQPENNYKTTPPVLDSDGSFFLYSKLTVDKSRWEQGDVFSCSVMHEALHNHYTQKSLSLSPGK
light: DIVMTQFQKFMSTSVGDRVSVTCKASQNVGTNVAWYQQKPGQSPEALISSASSRFSGVPDRFTGSGSGTDFTLTITNVQSEDLADYFCQQYNSFPFTFGSGTELEIKRTVAAPSVFIFPPSDEQLKSGTASVVCLLNNFYPREAKVQWKVDNALQSGNSQESVTEQDSKDSTYSLSSTLTLSKADYEKHKVYACEVTHQGLSSPVTKSFNRGEC
notes: also called comparator molecule XENP37217

- binding result (human CLDN6 [1]): binds
B2: XENP37541 (Xtend analog to XENP37227) (bispecific antibody)
heavy 1: QVQLVQSGAEVKKPGASVKVSCKTSGYTFTEYTMHWVRQAPGQSLEWMGGIDPNNANTHYNQKFQGRVTITVDKSASTAYMELSSLRSEDTAVYYCARIYYFGRLYFDFWGAGTLVTVSSASTKGPSVFPLAPSSKSTSGGTAALGCLVKDYFPEPVTVSWNSGALTSGVHTFPAVLQSSGLYSLSSVVTVPSSSLGTQTYICNVNHKPSDTKVDKKVEPKSCDKTHTCPPCPAPPVAGPSVFLFPPKPKDTLMISRTPEVTCVVVDVKHEDPEVKFNWYVDGVEVHNAKTKPREEEYNSTYRVVSVLTVLHQDWLNGKEYKCKVSNKALPAPIEKTISKAKGQPREPQVYTLPPSREEMTKNQVSLTCDVSGFYPSDIAVEWESDGQPENNYKTTPPVLDSDGSFFLYSKLTVDKSRWEQGDVFSCSVLHEALHSHYTQKSLSLSPGK
heavy 2: QVQLVQSGAEVKKPGASVKVSCKTSGYTFTEYTMHWVRQAPGQSLEWMGGIDPNNANTHYNQKFQGRVTITVDKSASTAYMELSSLRSEDTAVYYCARIYYFGRLYFDFWGAGTLVTVSSASTKGPSVFPLAPSSKSTSGGTAALGCLVKDYFPEPVTVSWNSGALTSGVHTFPAVLQSSGLYSLSSVVTVPSSSLGTQTYICNVNHKPSNTKVDKKVEPKSCGGGGSGGGGSQAVVTQEPSLTVSPGGTVTLTCGSSTGAVTTSNYANWVQQKPGKSPRGLIGGTNKRAPGVPARFSGSLLGGKAALTISGAQPEDEADYYCALWYSNHWVFGGGTKLTVLGKPGSGKPGSGKPGSGKPGSEVQLVESGGGLVQPGGSLRLSCAASGFTFSTYAMNWVRQAPGKGLEWVGRIRSKANNYATYYADSVKGRFTISRDDSKNTLYLQMNSLRAEDTAVYYCVRHGNFGDSYVSWFAYWGQGTLVTVSSGGGGSGGGGSKTHTCPPCPAPPVAGPSVFLFPPKPKDTLMISRTPEVTCVVVDVKHEDPEVKFNWYVDGVEVHNAKTKPREEQYNSTYRVVSVLTVLHQDWLNGKEYKCKVSNKALPAPIEKTISKAKGQPREPQVYTLPPSREQMTKNQVKLTCLVKGFYPSDIAVEWESNGQPENNYKTTPPVLDSDGSFFLYSKLTVDKSRWQQGNVFSCSVLHEALHSHYTQKSLSLSPGK
light: not shown
notes: 2+1 Fab2-scFv-Fc, C6-30_H1.9_L1.187, CD3 High-Int #1, with Xtend Fc (M428L/N434S); copies: 1 + 1 + 2

- EC50 (human CLDN9): 29.6 µg/mL
- CLDN9/CLDN6 EC50 ratio (human CLDN6 [2]): 44.9
B3: XENP36956 (antibody, V domains shown)
VH: QVQLVQSGAEVKKPGASVKVSCKTSGYTFTEYTMHWVRQAPGQSLEWMGGIDPNNGNTHYNQKFQGRVTITVDKSASTAYMELSSLRSEDTAVYYCARILYFGRLYFDFWGAGTLVTVSS
VL: DIQMTQSPSSLSASVGDRVTITCQASEDIYNRLAWYQQKPGKVPKLLISGATSLETGVPSRFSGSGSGKDYTFTISSLQPEDIATYYCQQYWSAPLTFGGGTKVEIKR
notes: Bivalent mAb, C6-30 combination variant; also called XENP36956 having H1.22_L1.87; XENP36956 having H1.22_L1.187; copies: 2 + 2

— US20240400675A1 (published 2024)
